Reference: PMC6331917

Test system: NS5BΔ21 (viral RNA-dependent RNA polymerase) (Hepatitis C virus)
Assay: competition (filter binding)
Settings: 5 mM HEPES pH 7.9, 2 mM MgCl2, 25 mM KCl, 37 °C, 30 min; nitrocellulose dot-blot filter binding. Aptamer:CRE Kd values (Table 2) are RNA-RNA and not listed.

HCV-CRE194 was tested. Which binding signal did it give?
The binding signal was 75.4 % complex.
